Test results: patent US20060040855A1 (published 2006)

Molecular target: rat LH receptor (rat, UniProt P16235)
Assay: cell-based or functional assay

Row | Binder | Efficacy, cyclic AMP accumulation
1 | dgα5-β8 (dg-αQ5C/hCGβR8C) (ligand) chain 1: not shown chain 2: SKEPLRPCCRPINATLAVEKEGCPVCITVNTTICAGYCPTMTRVLQGVLPALPQVVCNYRDVRFESIRLPGCPRGVNPVVSYAVALSCQCALCRRSTTDCGGPKDHPLTCDDPRFQDSSSSKAPPPSLPSPSRLPGPSDTPILPQ | 36%
2 | dgα27-β44 (dg-αQ27C/hCGβV44C) (ligand) chain 1: not shown chain 2: SKEPLRPRCRPINATLAVEKEGCPVCITVNTTICAGYCPTMTRCLQGVLPALPQVVCNYRDVRFESIRLPGCPRGVNPVVSYAVALSCQCALCRRSTTDCGGPKDHPLTCDDPRFQDSSSSKAPPPSLPSPSRLPGPSDTPILPQ | 14%
3 | dgα76-β44 (dg-αV76C/hCGβV44C) (ligand) chain 1: not shown chain 2: SKEPLRPRCRPINATLAVEKEGCPVCITVNTTICAGYCPTMTRCLQGVLPALPQVVCNYRDVRFESIRLPGCPRGVNPVVSYAVALSCQCALCRRSTTDCGGPKDHPLTCDDPRFQDSSSSKAPPPSLPSPSRLPGPSDTPILPQ | 34%
